T1: carcinoembryonic antigen (CEA) (human, UniProt P06731 35-685)
T1 sequence (looked up): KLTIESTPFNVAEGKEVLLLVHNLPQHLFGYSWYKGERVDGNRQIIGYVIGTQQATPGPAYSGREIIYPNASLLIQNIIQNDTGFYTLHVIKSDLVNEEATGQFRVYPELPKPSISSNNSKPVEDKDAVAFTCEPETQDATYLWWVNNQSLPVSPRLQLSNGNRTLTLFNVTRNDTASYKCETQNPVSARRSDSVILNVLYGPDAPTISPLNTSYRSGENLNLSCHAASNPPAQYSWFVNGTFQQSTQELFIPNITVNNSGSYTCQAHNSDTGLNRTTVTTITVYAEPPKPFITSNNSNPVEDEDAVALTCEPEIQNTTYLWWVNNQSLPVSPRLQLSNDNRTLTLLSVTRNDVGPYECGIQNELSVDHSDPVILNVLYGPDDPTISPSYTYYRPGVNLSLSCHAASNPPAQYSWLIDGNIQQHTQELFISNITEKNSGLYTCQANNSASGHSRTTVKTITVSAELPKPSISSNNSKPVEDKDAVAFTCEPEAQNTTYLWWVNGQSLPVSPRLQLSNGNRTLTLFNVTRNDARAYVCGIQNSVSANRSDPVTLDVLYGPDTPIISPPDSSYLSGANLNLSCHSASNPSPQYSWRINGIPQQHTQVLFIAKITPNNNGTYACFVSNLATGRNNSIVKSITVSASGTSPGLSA


Legend:
[1] = target: T1, carcinoembryonic antigen (CEA); assay: competition RIA against 125I-mCOL-1; reference of the fold not named
Procedure: (§1) Competition RIA: The relative antigen-binding affinity of HuCOL-1, HuCOL-1AbrCDR and HuCOL-1AbrCDR antibodies with framework-substitutions was determined using a competition RIA as described previously (De Pascalis et al., J Immunol., 169:3076-3084, 2002). Twenty-five μl of serial dilutions of the antibodies to be tested, as well as mCOL-1, chimeric COL-1, and HuCOL-1 (positive controls) and HuIgG (negative control), prepared in 1% BSA in PBS, were added to microtiter plates containing 10 ng of […] saturated with 5% BSA in PBS. ¹²⁵I-labeled mCOL-1 (100,000 cpm in 25 μl) was then added to each well. After an overnight incubation at 4° C., the plates were washed and the bound radioactivity was counted in a γ-scintillation counter.
(§2) Competition RIA experiments were performed to determine the relative CEA-binding affinity of chimeric COL-1, HuCOL-1, HuCOL-1AbrCDR, and the different HuCOL-1AbrCDR-derived antibodies. Serial dilutions of unlabeled antibodies were used to compete with the binding of ¹²⁵I-mCOL-1 (FIGS. 4A, 4B and 4C) to CEA.

[2] = target: T1, carcinoembryonic antigen (CEA); assay: competition RIA, unlabeled antibody against 125I-mCOL-1 on CEA; modified Scatchard
Procedure: as §1, §2

[3] = target: T1, carcinoembryonic antigen (CEA); assay: competition RIA: unlabeled antibody against 125I-mCOL-1 for binding to CEA, % inhibition against amount competitor Ab (ng), log axis
Source text: FIGS. 4A, 4B, and 4C are a series of graphs of a competition radioimmunoassay of HuCOL-1AbrCDR framework variants using ¹²⁵I-mCOL-1. Serial dilutions of unlabeled antibodies were used to compete with the binding of ¹²⁵ImCOL-1. The data was divided into three individual graphs to facilitate viewing. FIG. 4A compares the binding of unlabeled murine COL-1 (muCOL-1), chimeric COL-1 (cCOL-1), HuCOL-1, FRV1 (HuCOL-1AbrCDR), and human IgG (HuIgG). FIG. 4B compares the binding of unlabeled murine HuCOL-1AbrCDR, FRV2, FRV3, FRV4, FRV7, and FRV10. FIG. 4C compares the binding of unlabeled murine HuCOL-1AbrCDR, FRV5, FRV6, FRV8, FRV9, FRV11, and FRV12.
as §1, §2

[4] = target: T1, carcinoembryonic antigen (CEA); assay: competition RIA against 125I-mCOL-1 on CEA; modified Scatchard
Procedure: as §1, §2

[5] = target: anti-V region antibodies to COL-1 present in the serum of patient two; assay: SPR competition; soluble antibody against immobilized HuCOL-1 for serum anti-V region antibodies
[6] = target: anti-V region antibodies to COL-1 present in the serum of patient one; assay: as above

| Fold Difference [1] | Ka [2] | IC50 (read off the curve) [3] | Ka [4] | IC50 [5] | IC50 [6] | Binder |
| --- | --- | --- | --- | --- | --- | --- |
| 1 fold | 2.74e+08 M⁻¹ | ~20 ng |  |  |  | murine COL-1 monoclonal antibody (antibody, V domains shown, Whole murine antibody; also called mCOL-1; muCOL-1) VH: EVQLQQSGAELVRSGASVKMSCTASGFNIKDYYMHWVKQRPEQGLEWIGWIDPENGDTEYAPKFQGKATMTTDTSSNTAYLQLSSLTSEDTAVYYCNTRGLSTMITTRWFFDVWGAGTTVAVSS VL: DIVLTQSPASLTVSLGLRATISCRASKSVSASGYSYMHWYQQRPGQPPKLLIYLASNLQSGVPARFSGSGSGTDFTLNIHPVEEEDAATYYCQHSRELPTFGGGTKLEIK |
| 9.5 fold | 2.9e+07 M⁻¹ |  |  |  |  | FRV2 (antibody, name in Kabat numbering, V domains shown, also called HuCOL-1AbrCDR framework variant 2) VH: EVQLVQSGAEVVKPGASVKMSCKASGFNIKDYYMHWVKQRPEQGLEWIGWIDPENGDTEYAQKFQGKATMTTDTSTSTAYLELSSLRSEDTAVYYCNTRGLSTMITTRWFFDVWGAGTLVTVSS VL: DIVMTQSPASLAVSLGERATINCKSSQSVSASGYSYMHWYQQKPGQPPKLLIYLASNLQSGVPARFSGSGSGTDFTLTISSLQAEDVATYYCQHSRELPTFGGGTKVEIK |
| 4.5 fold | 6.1e+07 M⁻¹ |  |  |  |  | FRV9 (antibody, name in Kabat numbering, V domains shown, Kabat positions (see notes of FRV2 and FRV8); also called HuCOL-1AbrCDR framework variant 9) VH: EVQLVQSGAEVVKPGASVKVSCKASGYNIKDYYMHWVRQRPEQGLEWMGWIDPENGDTEYAQKFQGRVTMTTDTSTSTVYMELSSLRSEDTAVYYCNTRGLSTMITTRWFFDVWGAGTLVTVSS VL: DIVMTQSPASLAVSLGERATINCKSSQSVSASGYSYMHWYQQKPGQPPKLLIYLASNLQSGVPDRFSGSGSGTDFTLTISSLQAEDVAVYYCQHSRELPTFGGGTKVEIK |
| 4.5 fold | 6.1e+07 M⁻¹ |  |  |  |  | FRV11 (antibody, name in Kabat numbering, V domains shown, Kabat positions (see notes of FRV2 and FRV8); also called HuCOL-1AbrCDR framework variant 11) VH: QVQLVQSGAEVKKPGASVKVSCKASGYNIKDYYMHWVRQRPEQGLEWMGWIDPENGDTEYAQKFQGRVTMTTDTSTSTVYMELSSLRSEDTAVYYCNTRGLSTMITTRWFFDVWGAGTLVTVSS VL: DIVMTQSPASLAVSLGERATINCKSSQSVSASGYSYMHWYQQKPGQPPKLLIYLASNLQSGVPARFSGSGSGTDFTLTISSLQAEDVATYYCQHSRELPTFGGGTKVEIK |
| 1.1 fold | 2.51e+08 M⁻¹ |  | 2.51e+08 M⁻¹ |  |  | HuCOL-1AbrCDR framework variant 4 (FRV4) (antibody, V domains shown, also called HuCOL-1FRV4) VH: EVQLVQSGAEVVKPGASVKVSCKASGFNIKDYYMHWVRQRPEQGLEWMGWIDPENGDTEYAQKFQGRATMTTDTSTSTVYMELSSLRSEDTAVYYCNTRGLSTMITTRWFFDVWGAGTLVTVSS VL: DIVLTQSPASLAVSLGERATINCKSSQSVSASGYSYMHWYQQKPGQPPKLLIYLASNLQSGVPARFSGSGSGTDFTLTISSVQAEDVATYYCQHSRELPTFGGGTKLEIK |
| 2.8 fold | 1e+08 M⁻¹ |  |  |  |  | FRV6 (antibody, name in Kabat numbering, V domains shown, Kabat positions (see notes of FRV2 and FRV5); also called HuCOL-1AbrCDR framework variant 6) VH: EVQLVQSGAEVVKPGASVKVSCKASGFNIKDYYMHWVRQRPEQGLEWMGWIDPENGDTEYAQKFQGRATMTTDTSTSTVYMELSSLRSEDTAVYYCNTRGLSTMITTRWFFDVWGAGTLVTVSS VL: DIVMTQSPASLAVSLGERATINCKSSQSVSASGYSYMHWYQQKPGQPPKLLIYLASNLQSGVPDRFSGSGSGTDFTLTISSLQAEDVAVYYCQHSRELPTFGGGTKVEIK |
| 0.9 fold | 3.07e+08 M⁻¹ |  | 3.07e+08 M⁻¹ |  |  | HuCOL-1AbrCDR framework variant 7 (FRV7) (antibody, V domains shown, also called HuCOL-1FRV7; FR7) VH: EVQLVQSGAEVVKPGASVKVSCKASGYNIKDYYMHWVRQRPEQGLEWMGWIDPENGDTEYAQKFQGRVTMTTDTSTSTVYMELSSLRSEDTAVYYCNTRGLSTMITTRWFFDVWGAGTLVTVSS VL: DIVLTQSPASLAVSLGERATINCKSSQSVSASGYSYMHWYQQKPGQPPKLLIYLASNLQSGVPARFSGSGSGTDFTLTISSVQAEDVATYYCQHSRELPTFGGGTKLEIK |
| 3.6 fold | 7.7e+07 M⁻¹ |  |  |  |  | FRV8 (antibody, name in Kabat numbering, V domains shown, Kabat positions; also called HuCOL-1AbrCDR framework variant 8) VH: EVQLVQSGAEVVKPGASVKVSCKASGYNIKDYYMHWVRQRPEQGLEWMGWIDPENGDTEYAQKFQGRVTMTTDTSTSTVYMELSSLRSEDTAVYYCNTRGLSTMITTRWFFDVWGAGTLVTVSS VL: DIVMTQSPASLAVSLGERATINCKSSQSVSASGYSYMHWYQQKPGQPPKLLIYLASNLQSGVPARFSGSGSGTDFTLTISSLQAEDVATYYCQHSRELPTFGGGTKVEIK |

The remaining lines, values behind:

| Binder | Fold Difference [1] | Ka [2] | IC50 (read off the curve) [3] | Ka [4] | IC50 [5] | IC50 [6] |
| --- | --- | --- | --- | --- | --- | --- |
| chimeric COL-1 (antibody, V domains shown) VH: EVQLQQSGAELVRSGASVKMSCTASGFNIKDYYMHWVKQRPEQGLEWIGWIDPENGDTEYAPKFQGKATMTTDTSSNTAYLQLSSLTSEDTAVYYCNTRGLSTMITTRWFFDVWGAGTTVAVSS VL: DIVLTQSPASLTVSLGLRATISCRASKSVSASGYSYMHWYQQRPGQPPKLLIYLASNLQSGVPARFSGSGSGTDFTLNIHPVEEEDAATYYCQHSRELPTFGGGTKLEIK | 1.4 fold | 1.99e+08 M⁻¹ | ~30 ng |  |  |  |
| FRV12 (antibody, name in Kabat numbering, V domains shown, Kabat positions (see notes of FRV2 and FRV8); also called HuCOL-1AbrCDR framework variant 12) VH: QVQLVQSGAEVKKPGASVKVSCKASGYNIKDYYMHWVRQRPEQGLEWMGWIDPENGDTEYAQKFQGRVTMTTDTSTSTVYMELSSLRSEDTAVYYCNTRGLSTMITTRWFFDVWGAGTLVTVSS VL: DIVMTQSPASLAVSLGERATINCKSSQSVSASGYSYMHWYQQKPGQPPKLLIYLASNLQSGVPDRFSGSGSGTDFTLTISSLQAEDVAVYYCQHSRELPTFGGGTKVEIK | 5.6 fold | 4.9e+07 M⁻¹ |  |  |  |  |
| FRV3 (antibody, name in Kabat numbering, V domains shown, Kabat positions (see note of FRV2); also called HuCOL-1AbrCDR framework variant 3) VH: EVQLVQSGAEVVKPGASVKMSCKASGFNIKDYYMHWVKQRPEQGLEWIGWIDPENGDTEYAQKFQGKATMTTDTSTSTAYLELSSLRSEDTAVYYCNTRGLSTMITTRWFFDVWGAGTLVTVSS VL: DIVMTQSPASLAVSLGERATINCKSSQSVSASGYSYMHWYQQKPGQPPKLLIYLASNLQSGVPDRFSGSGSGTDFTLTISSLQAEDVAVYYCQHSRELPTFGGGTKVEIK | 8.6 fold | 3.2e+07 M⁻¹ |  |  |  |  |
| HuCOL-1 (antibody, V domains shown, Whole humanized antibody; also called humanized COL-1; ATCC PTA-4661) VH: EVQLVQSGAEVVKPGASVKMSCKASGFNIKDYYMHWVKQAPGQGLEWIGWIDPENGDTEYAPKFQGKATMTTDTSTSTAYLELSSLRSEDTAVYYCNTRGLSTMITTRWFFDVWGAGTLVTVSS VL: DIVLTQSPASLAVSLGERATINCRASKSVSASGYSYMHWYQQKPGQPPKLLIYLASNLQSGVPARFSGSGSGTDFTLTISSVQAEDVATYYCQHSRELPTFGGGTKLEIK | 1 fold | 2.78e+08 M⁻¹ |  | 2.78e+08 M⁻¹ | 1.9 nM | 4.9 nM |
| FRV5 (antibody, name in Kabat numbering, V domains shown, Kabat positions; also called HuCOL-1AbrCDR framework variant 5) VH: EVQLVQSGAEVVKPGASVKVSCKASGFNIKDYYMHWVRQRPEQGLEWMGWIDPENGDTEYAQKFQGRATMTTDTSTSTVYMELSSLRSEDTAVYYCNTRGLSTMITTRWFFDVWGAGTLVTVSS VL: DIVMTQSPASLAVSLGERATINCKSSQSVSASGYSYMHWYQQKPGQPPKLLIYLASNLQSGVPARFSGSGSGTDFTLTISSLQAEDVATYYCQHSRELPTFGGGTKVEIK | 2.7 fold | 1.01e+08 M⁻¹ | ~30 ng |  |  |  |
